Measured values published in PMC6923591.

How the values were obtained:
[1] = target: Ptpn6 Y208N C-SH2 domain (recombinant C-terminal SH2 domain of Ptpn6/SHP-1 with Y208N); test: ITC
[2] = target: Ptpn6 wt C-SH2 domain (recombinant C-terminal SH2 domain of Ptpn6/SHP-1); test: ITC

- Kd [1]: 10.4 µM
- Kd [2]: 20.1 µM
Substance: FcγR2b phosphopeptide
